Assay results as given in publication PMC2932737, “DNA Clasping by Mtb HU”.

Experiments:
[1] = target: HupBMtb (HU, MDP-1, HLPMt) (Mycobacterium tuberculosis H37Rv) (UniProt P9WMK7); assay: agarose EMSA; settings: scale: fold higher affinity than for linear pBSK
[2] = target: HupBMtb (HU, MDP-1, HLPMt) (Mycobacterium tuberculosis H37Rv) (UniProt P9WMK7); assay: EMSA
[3] = target: T1, HupBMtbN (Mycobacterium tuberculosis H37Rv, UniProt P9WMK7 3-97); assay: EMSA; 10 mM KCl; settings: protein: recombinant, tags: His (pET28a, NdeI/HindIII), chain copies: 2, label: 5' 32P, blunt
T1 sequence (P9WMK7 3-97): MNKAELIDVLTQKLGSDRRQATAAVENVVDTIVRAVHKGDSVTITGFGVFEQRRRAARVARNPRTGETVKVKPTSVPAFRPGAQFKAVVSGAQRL

[4] = target: T2, HupBMtb (HU, MDP-1, HLPMt) (Mycobacterium tuberculosis H37Rv, UniProt P9WMK7 3-216); assay: EMSA; 200 mM KCl; settings: protein: recombinant, tags: His (pET28a, NdeI/HindIII), chain copies: 2, label: 5' 32P, blunt
T2 sequence (P9WMK7 3-216): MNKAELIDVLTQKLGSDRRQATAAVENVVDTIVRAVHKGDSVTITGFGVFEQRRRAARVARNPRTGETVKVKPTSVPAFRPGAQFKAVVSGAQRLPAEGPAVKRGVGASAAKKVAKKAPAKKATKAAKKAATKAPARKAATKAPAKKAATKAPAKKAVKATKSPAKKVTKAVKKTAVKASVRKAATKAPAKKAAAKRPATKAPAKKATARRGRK

[5] = target: T2, HupBMtb (HU, MDP-1, HLPMt); assay: EMSA; 10 mM KCl; settings: protein: recombinant, tags: His (pET28a, NdeI/HindIII), chain copies: 2, label: 5' 32P, blunt
[6] = target: T2, HupBMtb (HU, MDP-1, HLPMt); assay: EMSA; 0-300 nM protein; two complexes; settings: protein: recombinant; tags: His (pET28a, NdeI/HindIII); chain copies: 2; label: 5' 32P; blunt
[7] = target: T1, HupBMtbN; assay: EMSA; 0-300 nM protein; single complex; settings: protein: recombinant; tags: His (pET28a, NdeI/HindIII); chain copies: 2; label: 5' 32P; blunt
[8] = target: T2, HupBMtb (HU, MDP-1, HLPMt); assay: EMSA; 0-300 nM protein; negligible; settings: protein: recombinant; tags: His (pET28a, NdeI/HindIII); chain copies: 2; label: 5' 32P; blunt
[9] = 48 bp duplex with nick in the lower strand
[10] = duplex with 1 nt gap in the lower strand
[11] = duplex with 2 nt gap in the lower strand

Chain of HupBMtb (HU, MDP-1, HLPMt) (Mycobacterium tuberculosis H37Rv) (P9WMK7 3-216): as above

**Q.** With pBluescript SK supercoiled as the molecule, how does the binding signal [1] read?
**A.** 1.5

**Q.** How did the Kd [2] turn out when “CTCTGTGACTGGTGTGACCTGGGAGAGAGAAGTTTTTTTAAGAACGTT (double strand) [A1 ds DNA (SH_1+SH_2)]” was run?
**A.** 42 nM

B1: A2 nick DNA (SH_1+SH_3+SH_4) (structured_DNA)
DNA 1: CTCTGTGACTGGTGTGACCTGGGAGAGAGAAGTTTTTTTAAGAACGTT
DNA 2: TCCCAGGTCACACCAGTCACAGAG
DNA 3: AACGTTCTTAAAAAAACTTCTCTC
**Q.** B1 was tested. Which Kd [3, 9] did it give?
**A.** 1000 nM

**Q.** And the Kd [4, 9]?
**A.** 65 nM

B2: A3 1-nt gap DNA (SH_1+SH_3+SH_5) (structured_DNA)
DNA 1: CTCTGTGACTGGTGTGACCTGGGAGAGAGAAGTTTTTTTAAGAACGTT
DNA 2: TCCCAGGTCACACCAGTCACAGAG
DNA 3: AACGTTCTTAAAAAAACTTCTCT
**Q.** What does the source list for B2?
**A.** Kd [3, 10]: 725 nM; Kd [5, 10]: 55 nM

B3: A4 2-nt gap DNA (SH_1+SH_3+SH_6) (structured_DNA)
DNA 1: CTCTGTGACTGGTGTGACCTGGGAGAGAGAAGTTTTTTTAAGAACGTT
DNA 2: TCCCAGGTCACACCAGTCACAGAG
DNA 3: AACGTTCTTAAAAAAACTTCTC
**Q.** How did the Kd [3, 11] turn out when B3 was run?
**A.** 536 nM

**Q.** And the Kd [5, 11]?
**A.** 60 nM

**Q.** And the Kd [4, 11]?
**A.** 88 nM

B4: A7 64% AT DNA (SH_12+SH_13) (dsDNA)
DNA 1: TCAAATCTAATCGGAGTCGTTTTGA
DNA 2: TCAAAACGACTCCGATTAGATTTGA
**Q.** What does the source list for B4?
**A.** binding result [6]: binds; binding result [7]: binds

B5: A6 84% GC DNA (SH_10+SH_11) (dsDNA)
DNA 1: GCCCGGCTGCACCGCGCCACCGCGG
DNA 2: CCGCGGTGGCGCGGTGCAGCCGGGC
**Q.** Does B5 bind [8]?
**A.** no binding
